Experimental data as given in PMC10447241 (Nature, 2023).
Each block holds one molecule with its values, some of them ahead of it.

Legend:
Assay in all cases: FRET or BRET; GCGR–Rluc8 (or mutants) and βarr1–GFP2 (or mutants) co-transfected 1:1 in HEK293F cells; glucagon 1 pM to 10 μM; HBSS, 20 mM HEPES pH 7.4; coelenterazine 400a; EC50 is that of glucagon in inducing the BRET signal
[1] = biological target: wild-type GCGR with Rluc8 at the C terminus (human) (UniProt P47871)
[2] = biological target: the GCGR mutations R413A and R414A (as a group, for the printed range of the EC50 shift)
[3] = biological target: T1, wild-type GCGR with Rluc8 at the C terminus (human, UniProt P47871 26-477); conditions: partners not purified
T1 construct: glucagon receptor (GCGR), human, wild type; also called WT; source: HEK293F, transfected, in living cells; not shown: FLAG, N-terminal, kept; Rluc8, C-terminal, kept
T1 sequence (P47871 26-477): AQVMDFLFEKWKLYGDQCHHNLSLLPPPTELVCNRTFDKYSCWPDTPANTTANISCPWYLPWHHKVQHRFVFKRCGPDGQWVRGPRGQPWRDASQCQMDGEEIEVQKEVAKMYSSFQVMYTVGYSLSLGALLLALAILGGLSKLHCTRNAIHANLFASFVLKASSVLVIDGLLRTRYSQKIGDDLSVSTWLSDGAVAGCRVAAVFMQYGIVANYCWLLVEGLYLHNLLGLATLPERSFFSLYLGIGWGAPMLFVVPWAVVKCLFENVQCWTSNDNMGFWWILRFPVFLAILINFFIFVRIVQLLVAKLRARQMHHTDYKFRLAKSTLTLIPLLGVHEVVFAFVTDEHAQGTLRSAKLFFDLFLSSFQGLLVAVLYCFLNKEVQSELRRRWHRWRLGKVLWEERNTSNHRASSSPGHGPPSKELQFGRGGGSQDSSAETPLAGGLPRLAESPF

Chain of wild-type GCGR with Rluc8 at the C terminus (human) (P47871 26-477): as above

fold shift of the glucagon EC50 in the GCGR–βarr1 BRET, mutant against wild type [1]: 24 fold
Molecule: ΔFL, the βarr1 mutant with the turn region of the finger loop removed, with GFP2 at the C terminus (from UniProt P49407 1-418) (natural protein)

fold shift of the glucagon EC50 in the GCGR–βarr1 BRET, mutant against wild type [2]: 112 to 205 fold
Molecule: human βarr1 with GFP2 at the C terminus (from UniProt P49407 1-418) (natural protein)

fold drop of glucagon potency in the GCGR–βarr1 BRET, mutant against wild type [3]: 15 fold
B1: βarr1 3Q (K232Q, R236Q and K250Q) with GFP2 at the C terminus (natural protein, human, UniProt P49407 1-418, looked up)
chain: MGDKGTRVFKKASPNGKLTVYLGKRDFVDHIDLVDPVDGVVLVDPEYLKERRVYVTLTCAFRYGREDLDVLGLTFRKDLFVANVQSFPPAPEDKKPLTRLQERLIKKLGEHAYPFTFEIPPNLPCSVTLQPGPEDTGKACGVDYEVKAFCAENLEEKIHKRNSVRLVIRKVQYAPERPGPQPTAETTRQFLMSDKPLHLEASLDKEIYYHGEPISVNVHVTNNTNKTVKKIQISVQQYADICLFNTAQYQCPVAMEEADDTVAPSSTFCKVYTLTPFLANNREKRGLALDGKLKHEDTNLASSTLLREGANREILGIIVSYKVKVKLVVSRGGLLGDLASSDVAVELPFTLMHPKPKEEPPHREVPENETPVDTNLIELDTNDDDIVFEDFARQRLKGMKDDKEEEEDGTGSPQLNNR
notes: β-arrestin 1 (βarr1), human, triple mutant of the wild type; source: HEK293F, transfected, in living cells; not shown: GFP2, C-terminal, kept
